Source: PMC3113405 (Nature structural & molecular biology, 2010)

T1: Cog2 with an N-terminal 7×His tag (S. cerevisiae, UniProt P53271 1-262)
T1 sequence (looked up): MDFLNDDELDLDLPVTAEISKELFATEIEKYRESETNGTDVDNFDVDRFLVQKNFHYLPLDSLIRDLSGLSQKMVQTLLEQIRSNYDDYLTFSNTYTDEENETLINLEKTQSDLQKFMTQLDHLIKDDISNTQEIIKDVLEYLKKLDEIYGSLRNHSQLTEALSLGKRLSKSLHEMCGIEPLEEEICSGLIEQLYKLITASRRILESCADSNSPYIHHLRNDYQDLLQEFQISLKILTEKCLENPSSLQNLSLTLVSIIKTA

T2: Cog8 (S. cerevisiae, UniProt Q04632 1-607)
T2 sequence (looked up): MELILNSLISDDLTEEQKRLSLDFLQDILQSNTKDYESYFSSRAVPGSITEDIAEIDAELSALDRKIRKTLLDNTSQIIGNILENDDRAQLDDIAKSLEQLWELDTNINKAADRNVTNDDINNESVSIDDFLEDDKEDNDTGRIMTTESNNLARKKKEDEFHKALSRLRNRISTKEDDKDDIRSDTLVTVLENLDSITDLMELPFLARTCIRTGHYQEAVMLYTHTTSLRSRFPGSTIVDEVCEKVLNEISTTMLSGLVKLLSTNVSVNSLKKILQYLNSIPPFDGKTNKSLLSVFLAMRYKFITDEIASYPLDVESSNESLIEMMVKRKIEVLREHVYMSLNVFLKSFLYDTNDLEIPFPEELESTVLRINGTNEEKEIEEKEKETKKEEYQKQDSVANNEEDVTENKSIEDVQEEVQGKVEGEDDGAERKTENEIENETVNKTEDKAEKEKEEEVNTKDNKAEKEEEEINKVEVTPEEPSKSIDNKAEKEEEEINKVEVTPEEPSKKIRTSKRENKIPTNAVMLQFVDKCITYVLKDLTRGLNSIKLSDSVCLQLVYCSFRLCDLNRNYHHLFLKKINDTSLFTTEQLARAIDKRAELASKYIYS


Legend:
[1] = target: T1, Cog2 with an N-terminal 7×His tag; assay: negative-stain single-particle electron microscopy with GFP labelling
Cog8 = target: T2, Cog8; assay: negative-stain single-particle electron microscopy

stoichiometry N [1]	binding result (Cog8)	Binder
1	–	Cog3 (natural protein, S. cerevisiae, UniProt P40094 1-801, looked up) MARSRKNSLVRDIASHPTIPESQTIVGLLDDSYLFDKLKKLSLAVENSDSLQRTDVSEGCSEVNGSEATTSADVKKTNKYLYYTTYLDQLNIKIDEYKVVLDQTRQVNDQLDSSIKKFRKISQDTGAFIEETKTIYEKQSKLSNLTESIPKALHYFEVLDPIMRRLNHATSPAIVKKSSFTTMLATIDESLRFLDENSDLKDAAAYRIKFKQCLIRACELISHFLTNLLKQTNQEILDKTKNKNSLTGLPSTTRDAFLYSKFYTIADTFKIQVSEIVKRSNEKAYNKYHDELNSILYECFNHYFQTRLRLLTPVIWSHIDEIVVKDKDQGLVKFIQDGKVYFQQLCADEYKLFVEFFPEKECRFKINQWFLQLCEPLYDSIRVRVLKETDICTLCDSVTLFAPYYEFEEGSEEYVKQFTDIQYDKLFEPIVQKVQARLILRVQIYVQQNILSYRPTRDVFMISNRRRKSKTSLQGGNEDATTSDDNPDPLLESYLSSFKNRSILPISPNDADDKSIDSEESTDKISQLQTYYPPLLKTLALLSKIYEMINSVVFDDLAHHVVHDCIVSLRNAYDMVIKSSAGKSDFNNLDISLAYLKNLLMLRDSIQNFNIQYTVNETYLDFSGVEGFFKSLKENGRNVLKKTKSSSILTLARELVPKVVNNMVDARTELISELRNVIKDFTESTSLELIDDTLDINSDEDLLSKNVKLRENIKARLPRIYEQILNYIDDQEIVTNLLDAVQELITQSYSKYYETITELAENGKFAKDQVADVMYLDVFTDFFAKEVADLLRNGDIDTITK
1	binds	Cog1 (natural protein, S. cerevisiae, UniProt P53079 1-417, looked up) MDEVLPLFRDSHIPQIKDYQLELQNDLTKTNEAFQKNLLKNYNKILSLTDSVNDLSLNLKNVDQDFKSLCFNDEKFQLNKLTPLPYQTTTHISPPRDEEKVSIPSQNILVISNWTISINNFCNRIVTSTTPSRIFDELLLNFHELSLIPVPSKFEALVKDKCCRLQKFLVDSMKTLNLTLLQWVKLYNLLNTEFSSKWDDDLLSIFNESLFETLFNDNVQALLISSANSKDHQYHSNQQYKDAIVVDFVNSSTFRDHLIRRTVKEINTHLDTLSTLRAKLKEPETLHKLDIFHDNDTNLNDGTVSPLDDDALKQYIDTAVFYSKGLTNDTTLQIYQTVQPTIEILQNLELYKCPQETLTDLRNKLITQLQEFKTQISSRLPSPLENSTSVVDDFITSYNNHNLLQLVIDQITQLRQQ
1	–	Cog4 (natural protein, S. cerevisiae, UniProt Q06096 1-861, looked up) MEGQKSNASWESSIIEGQLSKNLARYTLLLDKLSTLSQIDKLSEVIANDYAKQSKQLNAFVQQSQSSLNKESRKLELQRTNLTTTLTQFHETVATISSSNARAKAIHDDIETVDQERALVNKTLQFVKDVRTLKNNISLAHSALETKDYLVAATAINEIRSLPDKKLIVSEFAKKVVPSSEIPEEPAILIKNWCKELTSLFQEQFMEATRTQDIKELTLMFKMFPMIGQDVLGLDLYSKYVCDIIADESRKIMSNSMENSTKFQGFFSQVLLHLFKIVSTIINDHSKVIATCYGKKHMVHVMEKVEKEADLQASLILDIFMETRKIERTIHDINEWEHSQKNEDVNIDSNQSDIETDGETEKSSIISIHDLALLIMEFSQILQNWSMYSRFYSVKWNEFSDLHPHVLQPPPPIADGKFALKLKQDKVFDEFQVFVLNHLQRSFRNSISLEELPSLNDLITAVPLNDHDNISYPVTSVLDDLILLVRKNLISVVNTGQFKLLASFLNELVKFFQNRFLVKFMQNKFKLLQSKLASNVSLKRYIPKGEEQSATSRSVSPPANKFSPLSRFTFRGAAASALTNIQSNLQAVVAEDEDSILALHHYLIYLNTLYLSKVYVHRLLSIEILEDDSQRILRDNFPFDNDAAQLQNLIINSEKLVLEQTDKLSKWAVKYLFQNILQNRVRNLLGTVFVNSASSNSSTSNQKNVSRDYSAGSNQKNYITSIEDFEDLSQINSFNSKWNQLIIPYKNILHNEAYAELLSVIVDYIVTTLEQRIWTLEFNELGVTKLDRELSLFIGNMCGLNYNLREKFLKLTQIVLLLGLDDDNFDLTTGDIKDDFNGTFDWVINSQERIKARNMKIDRTQ
